Experimental data as given in patent US20230201361.

Tests used:
[1] = biological target: eighteen amino acid peptide containing the amino acid sequence PLGIA, covalently labeled with the same fluorophore near each end (HES structure)
[2] = biological target: control peptide, an HES-bearing peptide of the same length, with the same labeling, that does not contain the conformation-dependent cleavage site

B1: MMP-19 (protein)
chain: YLLLGRWRKKHLTFRILNLPSTLPPHTARAALRQAFQDWSNVAPLTFQEVQAGAADIRLSFHGRQSSYCSNTFDGPGRVLAHADIPELGSVHFDEDEFWTEGTYRGVNLRIIAAHEVGHALGLGHSRYSQALMAPVYEGYRPHFKLHPDDVAGIQALYGKKSPVIRDEEEEETELPTVPPVPTEPSPMPDPCSSELDAMMLGPRGKTYAFKGDYVWTVSDSGPGPLFRVSALWEGLPGNLDAAVYSPRTQWIHFFKGDKVWRYINFKMSPGFPKKLNRVEPNLDAALYWPLNQKVFLFKGSGYWQWDELARTDFSSYPKPIKGLFTGVPNQPSAAMSWQDGRVYFFKGKVYWRLNQQLRVEKGYPRNISHNWMHCRPRTIDTTPSGGNTTPSGTGITLDTTLSATETTFEY
fluorescence intensity [1]: Cleavage of the peptide gives rise to an increase in fluorescence intensity
fluorescence intensity [2]: The fluorescence of the latter does not increase upon addition of the MMP
